Measured values from patent US20180327500A1 (SYMPHOGEN A S, published 2018).
Substitutions are numbered along the chain they refer to.

Columns and labels:
Test in all cases: flow cytometry on transfected HEK293 cells;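 also: antibodies applied at 50 µg/ml, binding called specific when fluorescence exceeds the mean signal on a negative control chicken or mouse MET construct plus four SD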
Mouse Blade 1-3 = molecular target: T1, Mouse Blade 1-3
T1 construct: human/mouse chimera on transfected HEK293 cells; also called AA 25-233
Procedure: (§1) Cut-off values defined as the average fluorescence signal of all antibodies tested at 50 μg/ml to the negative control chicken or mouse MET construct+four standard deviations were employed to discriminate background binding from specific binding for the domain exchange or blade exchange constructs.
T1 MET ECD-SV5-GPI fusion: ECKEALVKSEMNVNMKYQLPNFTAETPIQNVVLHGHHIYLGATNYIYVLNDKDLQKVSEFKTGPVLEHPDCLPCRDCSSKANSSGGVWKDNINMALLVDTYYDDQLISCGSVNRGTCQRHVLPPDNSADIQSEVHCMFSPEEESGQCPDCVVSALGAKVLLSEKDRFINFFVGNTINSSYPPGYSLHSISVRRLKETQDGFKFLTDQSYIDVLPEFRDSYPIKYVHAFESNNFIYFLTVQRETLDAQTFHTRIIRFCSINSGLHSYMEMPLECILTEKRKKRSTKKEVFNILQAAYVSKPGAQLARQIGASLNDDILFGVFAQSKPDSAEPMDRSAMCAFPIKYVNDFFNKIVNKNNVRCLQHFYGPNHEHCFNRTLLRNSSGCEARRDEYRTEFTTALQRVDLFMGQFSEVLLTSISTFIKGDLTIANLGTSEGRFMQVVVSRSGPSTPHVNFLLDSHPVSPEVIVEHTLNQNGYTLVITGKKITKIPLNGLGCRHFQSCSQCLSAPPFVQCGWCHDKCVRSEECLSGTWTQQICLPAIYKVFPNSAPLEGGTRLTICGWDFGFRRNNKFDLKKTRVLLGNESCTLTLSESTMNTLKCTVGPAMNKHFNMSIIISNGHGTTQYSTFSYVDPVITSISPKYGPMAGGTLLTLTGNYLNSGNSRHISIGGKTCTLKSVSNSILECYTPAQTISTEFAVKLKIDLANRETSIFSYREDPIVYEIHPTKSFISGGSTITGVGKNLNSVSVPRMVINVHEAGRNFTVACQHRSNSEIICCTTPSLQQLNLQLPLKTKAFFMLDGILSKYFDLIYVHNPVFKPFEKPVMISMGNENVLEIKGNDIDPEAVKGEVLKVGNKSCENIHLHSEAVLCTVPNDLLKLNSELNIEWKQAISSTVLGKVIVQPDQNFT

Mouse MET = molecular target: T2, Mouse MET
T2 construct: on transfected HEK293 cells; also called murine MET ECD-SV5-GPI
Procedure: as §1
T2 MET ECD-SV5-GPI fusion: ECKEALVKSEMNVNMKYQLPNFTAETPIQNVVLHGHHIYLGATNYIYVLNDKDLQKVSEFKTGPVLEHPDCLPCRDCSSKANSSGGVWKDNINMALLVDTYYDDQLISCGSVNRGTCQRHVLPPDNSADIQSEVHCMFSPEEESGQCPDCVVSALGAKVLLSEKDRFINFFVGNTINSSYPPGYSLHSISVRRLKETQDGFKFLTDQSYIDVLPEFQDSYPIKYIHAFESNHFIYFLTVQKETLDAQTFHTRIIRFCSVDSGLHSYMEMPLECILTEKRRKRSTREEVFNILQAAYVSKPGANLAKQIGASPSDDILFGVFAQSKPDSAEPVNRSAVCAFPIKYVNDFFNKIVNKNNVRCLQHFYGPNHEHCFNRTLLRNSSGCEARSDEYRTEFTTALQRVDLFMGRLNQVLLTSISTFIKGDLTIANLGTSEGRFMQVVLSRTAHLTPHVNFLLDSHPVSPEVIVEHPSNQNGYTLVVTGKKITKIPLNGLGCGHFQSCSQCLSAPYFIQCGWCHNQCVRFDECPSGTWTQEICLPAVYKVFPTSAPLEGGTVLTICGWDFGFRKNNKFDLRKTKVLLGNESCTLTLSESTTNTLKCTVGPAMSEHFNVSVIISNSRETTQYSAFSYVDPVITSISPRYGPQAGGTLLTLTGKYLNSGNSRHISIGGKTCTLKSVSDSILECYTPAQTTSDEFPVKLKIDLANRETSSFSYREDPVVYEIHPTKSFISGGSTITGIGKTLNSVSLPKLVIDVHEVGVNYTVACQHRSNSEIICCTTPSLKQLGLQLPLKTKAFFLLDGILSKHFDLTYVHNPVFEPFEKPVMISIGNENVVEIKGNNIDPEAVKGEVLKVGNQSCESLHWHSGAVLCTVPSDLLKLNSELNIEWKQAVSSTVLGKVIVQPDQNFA

Mouse blade 2 = molecular target: T3, Mouse blade 2
T3 construct: human/mouse chimera on transfected HEK293 cells; also called Mouse blade 2-IPT4
Procedure: as §1
T3 MET ECD-SV5-GPI fusion: T2 MET ECD-SV5-GPI fusion with V7A, V32I, G35E, Y39F, D51E, K52E, S58A

Measured: binding result

B1: humanized antibody 9006 (antibody, human IgG1, kappa, V domains shown)
VH: QVQLVQSGSELKKPGASVKVSCKASGYTFTNFRMNWVKQAPGQGLKWMGWINTYTGEPTYVDDLKGRFVFSLDTSVSTAYLQISSLKAEDTAVYYCARKGIARAMDYWGQGTTVTVSS
VL: DIVMTQSPDSLAVSLGERATINCKSSQSLLDSGNQKNYLAWYQQKPGQPPKLLIFGASTRESGVPDRFSGSGSGTDFTLTISSLQAEDVAVYYCQNDHSYPYTFGQGTKLEIKR
notes: also called Hu9006; hu9006
no binding (tested: 50 µg/ml): Mouse Blade 1-3 | Mouse MET | Mouse blade 2

B2: humanized antibody 9338 (antibody, human IgG1, kappa, V domains shown)
VH: QVQLVQSGAEVKKPGSSVKVSCKASGYTFTSYWMHWVRQAPGQGLEWMGYINPSSGHIENNQKFKDRVTITADKSTSTAYMELSSLRSEDTAVYYCARGRFAYWGQGTLVTVSS
VL: EIVLTQSPATLSLSPGERATLSCSASSSVSSGYLYWYQQKPGQAPRLLIYSTSNLASGIPARFSGSGSGTDFTLTISSLEPEDFAVYYCHQWSSYPFTFGSGTKLEIKR
notes: also called Hu9338; hu9338
no binding (tested: 50 µg/ml): Mouse Blade 1-3 | Mouse MET | Mouse blade 2
